Drawing on article PMC5739284, this text covers Kd for one substance.

The term Kd denotes the concentration at which binding is half-saturated.

The assay concerns the target His6-sPfUIS3 (recombinant His-tagged soluble P. falciparum UIS3, wild type) (P. falciparum). As to the kind of experiment: SPR.

On to “GST-His6-LC3B (recombinant) (from UniProt Q9GZQ8 1-120) (natural protein)”, for which the Kd worked out at 244 nM.
